Laboratory results: paper PMC6778148

Target: fluorescein-labelled divalent stargazin-derived peptide ligand
Assay: fluorescence polarisation; direct titration: 50 nM fluorescein-labelled stargazin ligand (divalent or monovalent) against increasing concentrations of PDZ domains; apparent KD

Question: For “SAP97 tandem PDZ domains 1 and 2 (SAP97-12), from pET-NO (domain or fragment)”, which Kd is on record?
Answer: 199 nM
